T1: SSB (UniProt P05455 1-408)
T1 sequence: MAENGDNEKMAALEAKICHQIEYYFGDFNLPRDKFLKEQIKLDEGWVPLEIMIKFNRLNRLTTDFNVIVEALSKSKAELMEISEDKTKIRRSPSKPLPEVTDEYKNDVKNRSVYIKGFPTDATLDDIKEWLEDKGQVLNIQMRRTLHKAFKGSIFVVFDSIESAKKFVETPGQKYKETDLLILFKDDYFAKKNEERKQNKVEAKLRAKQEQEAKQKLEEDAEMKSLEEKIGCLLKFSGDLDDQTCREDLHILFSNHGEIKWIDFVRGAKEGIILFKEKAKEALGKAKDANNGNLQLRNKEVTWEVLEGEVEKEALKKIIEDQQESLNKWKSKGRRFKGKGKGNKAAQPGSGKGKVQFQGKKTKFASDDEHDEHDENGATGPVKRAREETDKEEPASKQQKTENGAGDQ

T2: Scl-70 (UniProt P11387 1-765)
T2 sequence: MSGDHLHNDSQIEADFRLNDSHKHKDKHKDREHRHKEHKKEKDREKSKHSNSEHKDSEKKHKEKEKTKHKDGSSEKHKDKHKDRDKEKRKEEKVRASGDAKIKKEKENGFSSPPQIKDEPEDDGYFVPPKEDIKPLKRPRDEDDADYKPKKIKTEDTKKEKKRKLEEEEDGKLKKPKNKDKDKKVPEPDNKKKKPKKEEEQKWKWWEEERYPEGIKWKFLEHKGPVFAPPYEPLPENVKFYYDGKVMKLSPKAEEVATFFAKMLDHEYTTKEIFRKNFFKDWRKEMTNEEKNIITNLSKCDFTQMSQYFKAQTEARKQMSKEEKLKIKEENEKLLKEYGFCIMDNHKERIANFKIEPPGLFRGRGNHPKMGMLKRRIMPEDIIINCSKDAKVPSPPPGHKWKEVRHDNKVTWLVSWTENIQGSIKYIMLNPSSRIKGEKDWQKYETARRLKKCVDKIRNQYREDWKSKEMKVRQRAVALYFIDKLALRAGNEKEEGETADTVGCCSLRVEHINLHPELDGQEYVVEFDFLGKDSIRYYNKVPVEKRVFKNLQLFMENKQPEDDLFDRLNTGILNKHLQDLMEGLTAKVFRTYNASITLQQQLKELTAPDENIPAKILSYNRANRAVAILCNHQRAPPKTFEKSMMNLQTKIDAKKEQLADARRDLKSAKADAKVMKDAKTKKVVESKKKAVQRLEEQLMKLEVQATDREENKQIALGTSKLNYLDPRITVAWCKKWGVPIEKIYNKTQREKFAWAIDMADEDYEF

T3: Jo-1 (UniProt P12081 1-509)
T3 sequence: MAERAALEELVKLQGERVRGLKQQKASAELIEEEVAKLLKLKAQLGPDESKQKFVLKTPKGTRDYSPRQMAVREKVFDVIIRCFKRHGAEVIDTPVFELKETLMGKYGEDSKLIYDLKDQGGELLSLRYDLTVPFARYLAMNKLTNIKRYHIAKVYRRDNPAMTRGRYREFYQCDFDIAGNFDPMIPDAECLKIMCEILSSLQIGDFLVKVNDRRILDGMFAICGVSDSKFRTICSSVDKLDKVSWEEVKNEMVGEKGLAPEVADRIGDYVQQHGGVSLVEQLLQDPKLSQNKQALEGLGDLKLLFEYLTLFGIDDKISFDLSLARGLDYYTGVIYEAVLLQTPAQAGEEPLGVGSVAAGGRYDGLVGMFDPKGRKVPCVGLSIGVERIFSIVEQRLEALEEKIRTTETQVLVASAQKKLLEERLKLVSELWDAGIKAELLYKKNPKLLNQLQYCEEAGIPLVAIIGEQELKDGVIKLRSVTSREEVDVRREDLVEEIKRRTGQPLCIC

B1: CH241 (antibody, V domains shown)
VH: QVQLVQSGAAVKKPGASVRVSCKASGYTFTSSHIHWVRQAPGQGPEWMGMIDPSVGRPTTAGKFQGRVTMTRDRYTSTAYMDLSSLRSEDTAVYYCARSVETTGSLLYFDYWGQGTLITVSS
VL: EIVLTQSPATLSVSPGERATLSCRASQSVRSNIAWYQQKPGQAPRLLIHGASTRATGIPGRFSGSGSGPEFTLAISSVQSEDFAVYYCQQYNDWWTFGQGTKVEIK
B2: CH235 (antibody, V domains shown)
VH: QVQLVQSGAEVKKPGASVTVSCQASGYTFTNYYVHWVRQAPGQGLQLMGWIDPSWGRTNYAQNFQGRITMTRDTSTSTVYMEMRSLRSEDTAVYYCARNVATEGSLLHYDYWGQGTLVTVSA
VL: EIVLTQSPATLSVSPGERATLSCRASQSVRSNLAWYQQRPGQAPRLLIYGTSTRATGVPARFSGRGSGTEFTLAISSMQSEDFAVYLCLQYNNWWTFGQGTKVEIK
notes: also called CH235_4A
B3: CH493 (antibody, V domains shown)
VH: QVRLLQYGGGVKRPGASMTISCVASGYNFNDYYIHWVRQAPGQGLELMGWIDPSGGRTDYAGAFGDRVSMYRDKSMNTLYMDLRSLRSGDTAMYYCVRNVGTAGSLLHYDHWGLGVMVTVSS
VL: EIVLTQSPATLSVSPGERVTLSCRASQSVRNNLAWYRQKRGQAPRLLIYGASTRATGIPARFSGSGSGTEFTLTISSMQSEDFAVYYCQQYNNWWTFGQGTKVEIK
notes: also called CH235.9; DH493

Legend:
[1] = target: T4, SSA; assay: AtheNA, Ab 25 ug/ml
T4 construct: also called SSA (Ro)

[2] = target: T1, SSB; assay: AtheNA, Ab 25 ug/ml
[3] = target: T5, Sm (Smith antigen); assay: AtheNA, Ab 25 ug/ml
T5 construct: Protein complex

[4] = target: T6, RNP (ribonucleoprotein); assay: AtheNA, Ab 25 ug/ml
T6 construct: Protein-RNA complex

[5] = target: T2, Scl-70; assay: AtheNA, Ab 25 ug/ml
[6] = target: T3, Jo-1; assay: AtheNA, Ab 25 ug/ml
[7] = target: T7, Histones; assay: AtheNA, Ab 25 ug/ml
T7 construct: Mixture of proteins

[8] = target: T4, SSA; assay: AtheNA, Ab 12.5 ug/ml
[9] = target: T1, SSB; assay: AtheNA, Ab 12.5 ug/ml
[10] = target: T5, Sm (Smith antigen); assay: AtheNA, Ab 12.5 ug/ml
[11] = target: T6, RNP (ribonucleoprotein); assay: AtheNA, Ab 12.5 ug/ml
[12] = target: T2, Scl-70; assay: AtheNA, Ab 12.5 ug/ml
[13] = target: T3, Jo-1; assay: AtheNA, Ab 12.5 ug/ml
[14] = target: T7, Histones; assay: AtheNA, Ab 12.5 ug/ml
[15] = target: T6, RNP (ribonucleoprotein); assay: AtheNA, Ab 6.25 ug/ml
[16] = target: T2, Scl-70; assay: AtheNA, Ab 6.25 ug/ml
[17] = target: T3, Jo-1; assay: AtheNA, Ab 6.25 ug/ml
[18] = target: T8, HIV-1 CH505 transmitted/founder gp120 Env (HIV-1); assay: competition ELISA, blocking of sCD4 binding to gp120
T8 construct: domain: gp120; also called CH505.TF gp120; CH505 TF gp120 Env

[19] = target: T8, HIV-1 CH505 transmitted/founder gp120 …; assay: competition ELISA, blocking of CH106 binding to gp120
[20] = target: T5, Sm (Smith antigen); assay: AtheNA, Ab 6.25 ug/ml
Source text: (§1) AtheNA Multi-Lyte ANA Plus Test System is one such assay. This is luminex-based assay, which is also used to screen patient sera.

[21] = target: T6, RNP (ribonucleoprotein); assay: AtheNA, Ab 6.25 ug/ml; remark: listed apart in the source
Source text: as §1

[22] = target: T2, Scl-70; assay: AtheNA, Ab 6.25 ug/ml; remark: listed apart in the source
Source text: as §1

Binder | AtheNA signal [1] | AtheNA signal [2] | AtheNA signal [3] | AtheNA signal [4] | AtheNA signal [5] | AtheNA signal [6] | AtheNA signal [7] | AtheNA signal [8] | AtheNA signal [9] | AtheNA signal [10] | AtheNA signal [11] | AtheNA signal [12] | AtheNA signal [13] | AtheNA signal [14] | AtheNA signal [15] | AtheNA signal [16] | AtheNA signal [17] | IC50 [18] [µg/mL] | IC50 [19] [µg/mL] | other results
B1 | 15 relative luminescence units | 6 relative luminescence units | 11 relative luminescence units | 6 relative luminescence units | 4 relative luminescence units | 5 relative luminescence units | 20 relative luminescence units | 14 relative luminescence units | 8 relative luminescence units | 7 relative luminescence units | 5 relative luminescence units | 3 relative luminescence units | 6 relative luminescence units | 13 relative luminescence units | 3 relative luminescence units | 1 relative luminescence units | 2 relative luminescence units | 2.6 | 1.5 | 
B2 | 13 relative luminescence units | 5 relative luminescence units | 7 relative luminescence units | 5 relative luminescence units | 4 relative luminescence units | 4 relative luminescence units | 7 relative luminescence units | 13 relative luminescence units | 5 relative luminescence units | 8 relative luminescence units | 6 relative luminescence units | 2 relative luminescence units | 3 relative luminescence units | 5 relative luminescence units | 3 relative luminescence units | 2 relative luminescence units | 2 relative luminescence units | 26.3 | 16.5 | 
B3 |  |  |  |  |  |  |  |  |  |  |  |  |  |  |  |  |  |  |  | AtheNA signal [20]: 46; AtheNA signal [21]: 32; AtheNA signal [22]: 17

From patent publication US10450368 (DUKE UNIVERSITY, dated 2019)
